Reference: publication PMC5340008 (BMC Biochemistry, 2017)
Positions count from the first letter of the chain named.

B1: BLIP [change] (natural protein)
chain: AGVMTGAKFTQIQFGMTRQQVLDIAGAENCETGGSFGDSIHCRGHAAGDQYAYATFGFTSAAADAKVDSKSQEKLLAPSAPTLTLAKFNQVTVGMTRAQVLATVGQGSCTTWSEYYPAYPSTAGVTLSLSCFDVDGYSSTGFYRGSAHLWFTDGVLQGKRQWDLV
B2: BLIP [change] (natural protein)
chain: B1 chain with Q50S
B3: BLIP [change] (natural protein)
chain: B1 chain with Q50T
B4: BLIP [change] (natural protein)
chain: B1 chain with Q50G
B5: BLIP [change] (natural protein)
chain: B1 chain with Q50P
B6: BLIP [change] (natural protein)
chain: B1 chain with Q50H
B7: BLIP [change] (natural protein)
chain: B1 chain with Q50R
B8: BLIP [change] (natural protein)
chain: B1 chain with Q50K
B9: BLIP [change] (natural protein)
chain: B1 chain with Q50D
B10: BLIP [change] (natural protein)
chain: B1 chain with Q50E
B11: BLIP [change] (natural protein)
chain: B1 chain with Q50A
B12: BLIP [change] (natural protein)
chain: B1 chain with Q50F
B13: BLIP [change] (natural protein)
chain: B1 chain with Q50L
B14: BLIP [change] (natural protein)
chain: B1 chain with Q50M
B15: BLIP [change] (natural protein)
chain: B1 chain with Q50V
B16: BLIP [change] (natural protein)
chain: B1 chain with Q50W
B17: BLIP [change] (natural protein)
chain: B1 chain with Q50C
B18: BLIP [change] (natural protein)
chain: B1 chain with Q50N

What follows are molecules tested against Bacillus anthracis Bla1 β-lactamase (Bacillus anthracis) (assay: not given). Conditions: not given.

Molecule	Ki [nM]
β-lactamase inhibitory protein (BLIP), wild type (from UniProt P35804 37-201) (natural protein)	2.5

What follows are molecules tested against KPC-2 β-lactamase (UniProt Q9F663 25-293) (assay: β-lactamase inhibition assay (nitrocefin hydrolysis, Morrison tight-binding fit); increasing concentrations of BLIP incubated with 1 nM β-lactamase for 1 h at room temperature in 50 mM sodium phosphate pH 7.0; nitrocefin added at its Km, initial velocity at 482 nm; Ki calculated from Ki app). Conditions: both partners purified.

Molecule	Ki [nM]
B1	1
B2	5
B3	3.5
B4	0.72
B5	5
B6	1.4
B7	11
B8	260
B9	3.2
B10	5.5
B11	1.9
B12	15
B13	0.7
B14	0.5
B15	10
B16	1.1
B17	42
B18	3.8

What follows are molecules tested against TEM-1 β-lactamase (UniProt P62593 24-286) in the same assay as above. Conditions: both partners purified.

Molecule	Ki [nM]
B1	0.24
B2	1.1
B3	2.5
B4	0.4
B5	40
B6	5
B7	69
B8	195
B9	160
B10	76
B12	10.3
B13	0.17
B14	0.11
B15	3.5
B16	11
B17	60
B18	7.8
